Experimental data taken from publication PMC2561067 (2008).

B1: HWTX-XI (protein)
chain: IDTCRLPSDRGRCKASFERWYFNGRTCAKFIYGGCGGNGNKFPTQEACMKRCAKA
B2: trypsin (protein)
chain: SSGTSYPDVLKCLKAPILSDSSCKSAYPGQITSNMFCAGYLEGGKDSCQGDSGGPVVCSGKLQGIVSWGSGCAQKNKPGVYTKVCNYVSWIKQTIASN

Experiments:
trypsin = molecular target: B2; assay: ITC
BPTI = BPTI (Bos taurus, UniProt P00974); assay: ITC

Binder	Kd (trypsin) [nM]	Kd (BPTI) [nM]
B1	0.23	
B2		6.57
